Results on 17 sequences are retold here after a protein production outcome set (Wang et al. 2014).

The series can be described thus: label from the status in PepcDB records.
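Note: failed if final PepcDB status was selected cloned or expressed and not failed if soluble or beyond.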

As for “QKNPDSYNGAVRENYTWSQDYTDLEVRVPVPKHVVKGKQVSVALSSSSIRVAMLEENGERVLMEGKLTHKINTESSLWSLEPGKCVLVNLSKVGEYWWNAILEGEEPIDID”, the protein production result is on record as “not failed”.

Consider “QLPSYRFNPNNHQSEQTLCVVCMCDFESRQLLRVLPCNHEFHAKCVDKWLKANRTCPICRAD”, for which the protein production entry is recorded as “not failed”. With “QLRDFSSIIQTCSGNIQRISQATAQIKNLMSQLGTKQDSSKLQENLQQLQHSTNQLAKETNELLKELGSLPLPLSTSEQRQQRLQKERLMNDFSAALNNFQAVQRRVSEKEKESIAR”, the protein production entry was “not failed”. With “QLREIVEKVSRVDDVHLALDILVKETCAALRTECCTIYLANEEMQRLELMATQGLIFEGDSIHINFNEGLVGLVKRSAEPLNLAEASKHPEFKFFPQLGEQVYHSFLATPIIHRKQVLGVLVIQQKTPRLFSEMEESFLVTLSAQLAVIIAHAQSLGHWQ”, the protein production entry was “failed”.

Take “QLSMLNPQKPMRRSEQHIARQVFSGLTRLDEEEQLQPDLAHAWQALSDTHWRFYLRPGVRFHNGNLLTTELIVQNLWQLRLLNLFAHIDRVDSPYPWAVDVHLQKPDTRLPLLLAEACAKILPAESDRNPDFDLMPVGTGPYKVVLND”: the protein production result was “failed”. With “QLSSFETCAEKEESANTTESAIFEYHCEMSFDPNLLHNNGHNGYPNGTSAALRETGVIEKLLTSYGFIQCSERQARLFFHCSQYNGNLQDLKVGDDVEFEVSSDRRTGKPIAVKLVKIKQEILPEERMNGQVVCAVPHNLESKSPAAPGQSPTGSVCYERNGEVFYLTYTPEDVEGNVQLETGDKINFVIDNNKHTGAVSARNIMLLKKKQARCQGVVCAMKEAFGFIERGDVVKEIFFHYSEFKGDLETLQPGDDVEFTIKDRNGKEVATDVRLLPQGTVIFEDISIEHFEGTVTKVIPKVPSKNQNDPLPGRIKVDFVIPKELPFGDKDTKSKVTLLEGDHVRFNISTDRRDKLERATNIEVLSNTFQFTNEAREMGVIAAMRDGFGFIKCVDRDVRMFFHFSEILDGNQLHIADEVEFTVVPDMLSAQRNHAIRIKKLPKGTVSFHSHSDHRFLGTVEKEATFSNPKTTSPNKGKEKEAEDGIIAYDDCGVKLTIAFQAKDVEGSTSPQIGDKVEFSISDKQRPGQQVATCVRLLGRNSNSKRLLGYVATLKDNFGFIETANHDKEIFFHYSEFSGDVDSLELGDMVEYSLSKGKGNKVSAEKVNKTHSVNGITEEADPTIYSGKVIRPLRSVDPTQTEYQGMIEIVEEGDMKGEVYPFGIVGMANKGDCLQKGESVKFQLCVLGQNAQTMAYNITPLRRATVECVKDQFGFINYEVGDSKKLFFHVKEVQDGIELQAGDEVEFSVILNQRTGKCSACNVWRVCEGPKAVAAPRPDRLVNRLKNITLDDASAPRLMVLRQPRGPDNSMGFGAERKIRQAGVID”, the protein production result is “not failed”. In the case of “QNKKSGNPILPGFHADPEVLYSHQTKRYYIYPTSDGFPGWGGSYFKVFSSKNLKTWKEETVILEMGKNVSWANGNAWAPCIEEKKIDGKYKYFFYYSANPTTNKGKQIGVAVADSPTGPFTDLGKPIITSSPTGRGQQIDVDVFTDPVSGKSYLYWGNGYMAGAELNDDMLSIKEETTVVLTPKGGTLQTYAYREAPYVIYRKGIYYFFWSVDDTGSPNYHVVYGTAQSPLGPIEVAKEPIVLIQNPKEEIYGPAHNSILQVPGKDKWYIVYHRINKNHLNDGPGWHREVCIDRMEFNPDGTIKQVIPTP” it was “not failed”; in that of “QNNYLQSLEVQVMLDTLRVIHNPLQDYALVALMKSPMFGFDEDELARLSLQKAEDKVHENLYEKLVNAQKMASSQKGLIHTALAEKLKQFMDILASWRLYAKTHSLYDLIWKIYNDRFYYDYVGALPNGPARQANLYALALRADQFEKSNFKGLSRFIRMIDQVLEAQ”, “failed”.

For the sequence “QQMQAESGFVQHVGFKCDNCGIEPIQGVRWHCQDCPPEMSLDFCDSCSDCLHETDIHKEDHQLEPIYRS”, the protein production result was “not failed”. Consider “QRRLSIFVDGNNMFYAQQKNNWFFDPRRVLDYFTCDPTVRLINAFWYTGLKDSQDQRGFRDALISLGYTVRTKILKEYYDDVSGRYSQKANLDIEIVVDMFNTVDQYDQVILFSGDGDFERAIELLRSKNTHITVVSTEGMIARELRNATDCYIDLNNLRAEIEKT”, for which the protein production result was “failed”.

As to “QSGATAKVSVLYIGPMEAPADAAQRLGLPAGTQVLARRRLYFRNGTPVETASSYLPWDVVKDIPELFAENPGGGGIYARLEDHGHEFAEFVETLQARPASKAEASELALSPGAPVVHLIREARTTAGVVVEVCDTLMAADQFVFEYRIPAAD”, the protein production entry was “failed”. In the case of “QTEGLETVHIKGQRSYNAIATEKNGDYSSFAATVGTKIPASLREIPQSVSIITNQQVKDRNVDTFDQLARKTPGLRVLSNDDGRSSVYARGYEYSEYNIDGLPAQMQSINGTLPNLFAFDRVEVMRGPSGLFDSSGEMGGIVNLVRKRPTKAFQGHAAAGFGTHKQYKAEADVSGSLNSDGSVRGRVMAQTVGASPRPAEKNNRRETFYAAADWDINPDTVLGAGYLYQQRRLAPYNGLPADANNKLPSLPQHVFVGADWNKFKMHSHDVFADLKHYFGNGGYGKVGMRYSDRKADSNYTFAGSKLNNTGQADVAGLGTDIKQKAFAVDASYSRPFALGNTANEFVIGADYNRLRSTNEQGRSTLSKSVALDGFRALPYNGILQNARAGNKGFNHSVTEENLDETGLYAKTVFRPLEGLSLIAGGRVGHHKIESGDGKTLHKASKTKFTSYAGAVYDIDGSNSLYASASQLYTPQTSIGTDGKLLKPREGNQFEIGYKGSYMDDRLNTRVSFYRMKDKNAAAPLDSNNKKTRYAALGKRVMEGVETEISGAMTPKWQIHAGYSYLHSQIKTASNSRDEGIFLLMPKHSANLWTTYQVTSGLTIGGGVNA” it was “failed”; in that of “QTQVNAEKKIQVEFVSANPTSSLHVGHGRGAAYGMTVANLLEATGAQVDREYYVNDAGRQMDILATSTYLRYLELLGQPLVFPKNAYQGDYVKEIAQSIIDKDGDAYVRSVADVYRNVPEDVQYAEELDSEGNKVVLSGDKEKHIDGLIANSQQLIGQGYRVFHQAALKAILDDIKDDLADFGVTFDQWFSEASLTQKIDEALQTLDQRGYLYEKEGNIWFKSTKFGDEKDRVVKRRNGQTTYFASDIAYHLDKLQRGYTHIVDIWGSDHHGYIARVKAAIDAMGYDSSKLTVLLVQFVSLWRGGEMVQMSSRSGQFVTLRELRQEVGNDAARFYYVMRKSEQHIDFDLDLAVSQSKDNAVYYIQYAHARICRMLEKANS”, “failed”.

For “QVKSERSQKIFLEFVSANPTGPLHIGHARGAVFGDSLAKIARFLGHEVLCEYYVNDMGSQIRLLGLSVWLAYREHVLKESVTYPEVFYKGEYIIEIAKKANNDLEPSLLKENEETIIEVLSGYARDLMLLEIKDNLDALGIHFDSYASEKEVFKHKDAVFEQLEKANALYEKDSKIWLKSSLYQDESDRVLIKEDKSYTYLAGDIVYHDEKFKQDYTKYINIWGADHHGYIARVKASLEFLGYDSNKLEVLLAQMVRLLKDNEPYKMSKRAGNFILIKDVVDDVGKDALRFIFLSKRLDTHLEFDVNTLKKQDSSNPIYYIHYANSRIHTMLEKSPFSKEEVLQTP”, the protein production entry is “failed”. Consider “QVSKTYYVSKPGTLISMMTEEEANSITHLTLTGKLNAEDFRHLRDEFPSLKVLDISNAEIKMYSGKAGTYPNGKFYIYMANFVPAYAFSNVVNGVTKGKQTLEKVILSEKIKNIEDAAFKGCDNLKICQIRKKTAPNLLPEALADSVTAIFIPLGSSDAYRFKNRWEHFAFIEGEPLETTIQVGAMGKLEDEIMKAGLQPRDINFLTIEGKLDNADFKLIRDYMPNLVSLDISKTNATTIPDFTFAQKKYLLKIKLPHNLKTIGQRVFSNCGRLAGTLELPASVTAIEFGAFMGCDNLRYVLATGDKITTLGDELFGNGVPSKLIYKK”, for which the protein production result is reported as “not failed”. In the case of “QYDPYKNPESAQTRRNTVLQQMYQDKNISKKEYDQAVATPVTDGLKELKQKSTYPKYMDNYLKQVISEVKQKTGKDIFTAGL” it was “failed”; in that of “RAKLMEERETSLKDSVEVAFDAVRLIANNPNLSEAEAKQQVKAVLTNIRYGSDGYFFAYDAQGTNLVHPIQPELVGQNLWQLQDERGDFLIQ”, “failed”.
